Data set [1] concerns the molecule itself. The experiment in a line: native MS; as-isolated and reconstituted NsrR, 8 μM [4Fe–4S], ionised from 100 mM ammonium acetate pH 8.0, positive-mode ESI, no DNA.
For data set [2], the target named is T1, holo NsrR ([4Fe-4S] in each subunit) (Streptomyces coelicolor, UniProt Q9L132 1-148).
T1 sequence: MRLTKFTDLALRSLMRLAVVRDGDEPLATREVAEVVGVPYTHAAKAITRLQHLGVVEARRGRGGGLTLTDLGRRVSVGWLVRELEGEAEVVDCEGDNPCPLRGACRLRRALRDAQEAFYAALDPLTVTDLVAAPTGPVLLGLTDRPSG
The experiment in a line: native MS; about equal free and DNA-bound holo NsrR before NO; SPR: 10 mM HEPES, 150 mM NaCl, 0.05% polysorbate 20, pH 7.4, 25 C, anaerobic; native MS: 100 mM ammonium acetate pH 8 (30 C for nitrosylation). Particulars: protein: recombinant; tags: none; chain copies: 2; blunt.

For data set [3], the target named is T1, holo NsrR ([4Fe-4S] in each subunit). The experiment in a line: native MS; 100 mM ammonium acetate pH 8; relative affinity; SPR: 10 mM HEPES, 150 mM NaCl, 0.05% polysorbate 20, pH 7.4, 25 C, anaerobic; native MS: 100 mM ammonium acetate pH 8 (30 C for nitrosylation). To be noted: protein: recombinant; tags: none; chain copies: 2; blunt.

B1: NsrR from Streptomyces coelicolor, non-tagged (natural protein)
chain: T1 sequence
notes: NsrR, Rrf2-family transcriptional regulator of Streptomyces coelicolor A3, locus SCO7427; non-tagged construct from pNsrR; Homodimer; Each subunit can carry a [4Fe–4S] cluster: two clusters per dimer is holo, one is hemi-apo, none is apo; All three forms were observed as dimers by native MS (32 608, 32 257 and 31 907 Da); also called non-tagged NsrR; [4Fe–4S]; NsrR; source: E. coli BL21 λDE3 …
Turning to B1, the “stoichiometry N” value in data set [1] came to 2.

B2: hmpA2 23 bp native MS (dsDNA)
DNA 1: AACAAGCATCTGAGATCCCAGTT
DNA 2: AACTGGGATCTCAGATGCTTGTT
With B2, the binding result in data set [2] was “binds”.

B3: hmpA1 22 bp native MS (dsDNA)
DNA 1: AACACGAATATCATCTACCAAT
DNA 2: ATTGGTAGATGATATTCGTGTT
B3: the Kd in data set [3] worked out at 3000 ± 100 nM.

Source of the values: article PMC11500311, “Binding of a single nitric oxide molecule is sufficient to disrupt DNA binding of the nitrosative stress regulator NsrR†” (Chemical Science, 2024).
